The chains are these.
T1: wild-type human Fas receptor extracellular domain fused to human IgG1-Fc domain with a thrombin cleavage site … (human, UniProt P25445 26-173)
T1 construct: human Fas receptor, extracellular domain; A thrombin cleavage site lies between the receptor part and the Fc; also called wild-type hFasRECD-T-Fc; hFasRECD-T-Fc
T1 sequence (looked up): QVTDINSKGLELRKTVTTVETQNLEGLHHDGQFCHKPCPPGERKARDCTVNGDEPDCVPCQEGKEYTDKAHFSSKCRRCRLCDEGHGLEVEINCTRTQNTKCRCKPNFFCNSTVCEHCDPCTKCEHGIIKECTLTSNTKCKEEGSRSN

B1: tag-free human Fas ligand extracellular domain (139-281, N184Q, N250Q), N-glycan untrimmed (domain or fragment, UniProt P48023 139-281, looked up)
chain: EKKELRKVAHLTGKSNSRSMPLEWEDTYGIVLLSGVKYKKGGLVIQETGLYFVYSKVYFRGQSCNNLPLSHKVYMRNSKYPQDLVMMEGKMMSYCTTGQMWARSSYLGAVFQLTSADHLYVNVSELSLVNFEESQTFFGLYKL
modifications: remaining N-glycans, untrimmed
notes: human Fas ligand (281 aa), extracellular domain with residues 103-138 deleted, i.e. residues 139-281, with N184Q and N250Q; Secreted with the S. cerevisiae alpha-factor prepro signal; also called tag-free hFasLECD; N-glycan untrimmed tag-free hFasLECD; source: Pichia pastoris GS115 (Mut+), secreted, purified (two rounds of cation-exchange chromatography)
B2: N-terminal FLAG-(Gly)5 tagged human Fas ligand extracellular domain (aa 139-281, N184Q, N250Q) (domain or fragment, UniProt P48023 139-281, looked up)
chain: B1 chain
notes: human Fas ligand (281 aa), residues 139-281 with N184Q and N250Q; Positive control of the co-immunoprecipitation; also called NFG5-hFasLECD; not shown: FLAG-(Gly)5, N-terminal, kept
B3: SUNBRIGHT ME-050MA conjugated NFG1CG4-hFasLECD (domain or fragment, human, UniProt P48023 139-281, looked up)
chain: B1 chain
modifications: cysteine in the N-terminal tag conjugated with SUNBRIGHT ME-050MA (linear methoxy polyethylene glycol of about 5 kDa with one maleimide group); a small fraction of subunits not conjugated
notes: human Fas ligand (281 aa), residues 139-281 with N184Q and N250Q; also called SUNBRIGHT ME-050MA adduct of NFG1CG4-hFasLECD; not shown: FLAG-GlyCys(Gly)4, N-terminal, kept
B4: NFG1CG4-hFasLECD cross-linked with SUNBRIGHT DE-100MA, peak III of the size-exclusion chromatography (domain or fragment, human, UniProt P48023 139-281, looked up)
chain: B1 chain
modifications: cysteine in the N-terminal tag conjugated with SUNBRIGHT DE-100MA (linear polyethylene glycol of about 10 kDa with a maleimide group at either end): two subunits cross-linked by one molecule, or one subunit conjugated with one molecule; unreacted cysteines capped with N-Ethylmaleimide
notes: human Fas ligand (281 aa), residues 139-281 with N184Q and N250Q; not shown: FLAG-GlyCys(Gly)4, N-terminal, kept
B5: NFG1CG4-hFasLECD cross-linked with SUNBRIGHT DE-100MA, peak II of the size-exclusion chromatography (domain or fragment, human, UniProt P48023 139-281, looked up)
chain: B1 chain
modifications: cysteine in the N-terminal tag conjugated with SUNBRIGHT DE-100MA (linear polyethylene glycol of about 10 kDa with a maleimide group at either end): two subunits cross-linked by one molecule, or one subunit conjugated with one molecule; unreacted cysteines capped with N-Ethylmaleimide
notes: as for B4
B6: N-glycan trimmed tag-free human Fas ligand extracellular domain (139-281, N184Q, N250Q) (domain or fragment, UniProt P48023 139-281, looked up)
chain: B1 chain
modifications: N-glycans trimmed with Endo Hf
notes: human Fas ligand (281 aa), residues 139-281 with N184Q and N250Q; Same chain as m1 after Endo Hf digestion; also called N-glycan trimmed tag-free hFasLECD; source: Pichia pastoris GS115 (Mut+), secreted, purified; digested with Endo Hf, Con A-agarose flow-through, Mono S cation-exchange
B7: N-Ethylmaleimide conjugated NFG1CG4-hFasLECD (domain or fragment, human, UniProt P48023 139-281, looked up)
chain: B1 chain
modifications: cysteine in the N-terminal tag conjugated with N-Ethylmaleimide
notes: human Fas ligand (281 aa), residues 139-281 with N184Q and N250Q; also called N-Ethylmaleimide adduct of NFG1CG4-hFasLECD; not shown: FLAG-GlyCys(Gly)4, N-terminal, kept
B8: NFG1CG4-tagged human Fas ligand extracellular domain (139-281, N184Q, N250Q), not conjugated (domain or fragment, UniProt P48023 139-281, looked up)
chain: B1 chain
modifications: cysteine in the N-terminal tag, partly in a possible inter-subunit disulfide bond
notes: human Fas ligand (281 aa), residues 139-281 with N184Q and N250Q; Made from the NFG5-hFasLECD gene by an insertion mutation that adds a cysteine in the (Gly)5 region of the tag; also called NFG1CG4-hFasLECD; source: Pichia pastoris GS115 (Mut+), secreted; 40-fold concentrated culture supernatant; partially purified by cation-exchange chromatography; not shown: FLAG-GlyCys(Gly)4, N-terminal, kept

From paper PMC3995750, “Improved production of recombinant human Fas ligand extracellular domain in Pichia pastoris: yield enhancement using disposable culture-bag and its application to site-specific chemical modifications” (BMC Biotechnology, 2014) come the findings set out here.

The first series concerns the target T1, wild-type human Fas receptor …. In words: co-IP; receptor-mediated ligand immunoprecipitation: purified hFasLECD sample with hFasRECD-T-Fc protein and Protein A-agarose beads (immunoprecipitation kit, Roche); precipitate analysed by SDS-PAGE. As to conditions: both partners purified.
As for B1, the binding result is on record as “binds”.
Still for that read-out and setting: to B2 belongs “binds”; to B3, “binds”.
Still for that read-out and setting: to B4 belongs “binds”; to B5, “binds”.
On to B6, for which the binding result is recorded as “binds”.
Take B7: the binding result is “binds”.

A further series concerns the molecule itself. As to the kind of experiment: SDS-PAGE with and without 2-mercaptoethanol; partially purified NFG1CG4-hFasLECD (main peak of the 1st cation-exchange chromatography, concentrated) in sample buffer with or without 2-mercaptoethanol; inter-subunit disulfide bond.
Conditions: not given
Turning to B8, the binding result was “binds”.
